Test results: article doi:10.1101/2022.03.10.483824

Target: Full length native cardiac myosin II from rabbit heart ventricle (rabbit) (UniProt P04461)
Assay: optical trapping

Biotinylated actin filament (chicken G actin polymerised with biotinylated G actin) (from UniProt P68139 1-377) (natural protein)
maximum AM detachment rate (kcat, at saturating ATP): 88.2 s⁻¹
